PMC7057950 (2020)

Target: the molecule itself

B1: hHsp90β (protein)
chain: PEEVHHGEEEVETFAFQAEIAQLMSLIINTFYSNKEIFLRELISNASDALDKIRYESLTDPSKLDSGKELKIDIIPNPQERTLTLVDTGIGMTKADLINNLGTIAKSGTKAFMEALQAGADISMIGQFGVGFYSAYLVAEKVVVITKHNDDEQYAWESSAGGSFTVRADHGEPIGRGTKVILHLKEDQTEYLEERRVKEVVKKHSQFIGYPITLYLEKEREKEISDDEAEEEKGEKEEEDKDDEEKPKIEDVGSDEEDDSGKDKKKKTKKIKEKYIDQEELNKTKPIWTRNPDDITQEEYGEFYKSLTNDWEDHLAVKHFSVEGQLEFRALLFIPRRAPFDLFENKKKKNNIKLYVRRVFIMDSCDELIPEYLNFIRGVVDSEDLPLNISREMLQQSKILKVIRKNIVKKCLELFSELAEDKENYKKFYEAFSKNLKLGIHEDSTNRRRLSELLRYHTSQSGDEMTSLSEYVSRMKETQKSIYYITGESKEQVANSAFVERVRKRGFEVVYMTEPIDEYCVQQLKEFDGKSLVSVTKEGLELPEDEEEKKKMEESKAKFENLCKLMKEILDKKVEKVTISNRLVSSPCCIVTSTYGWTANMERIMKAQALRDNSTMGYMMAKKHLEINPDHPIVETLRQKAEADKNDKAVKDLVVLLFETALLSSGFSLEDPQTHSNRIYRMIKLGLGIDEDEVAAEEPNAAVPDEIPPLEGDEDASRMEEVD
In the case of B1, the Kd is reported as roughly 9.5 nM.
